The values that follow come from patent US20150374794A1 (Novo Nordisk, published 2015).

First the molecules themselves.
B1: N^ε28-[(4S)-4-carboxy-4-[[(4S)-4-carboxy-4-[[(2S)-2-[[(2S)-4-carboxy-2-[[(2S)-2-[[(4S)-4-carboxy-4-[[(4S)-4-carboxy-4-(17-carboxyheptadecanoylamino)butanoyl]ami … (peptide)
peptide: H[Aib]QGTFTSDLSKYLESKRARSFVQWLLK([γGlu-γGlu-Ser-Glu-Ser-γGlu-γGlu-C18 diacid])T-NH2
B2: N^ε29-[(4S)-4-carboxy-4-[[2-[2-[2-[[2-[2-[2-[[(4S)-4-carboxy-4-[[(4S)-4-carboxy-4-(17-carboxyheptadecanoylamino)butanoyl]amino]butanoyl]amino]ethoxy]ethoxy]acet … (peptide)
peptide: H[Aib]QGTFTSDLSKYLDKRRAREFVAWLLNT-NH2
modifications: not fully specified (residue 16)
B3: N^ε29-[(4S)-4-carboxy-4-[[(4S)-4-carboxy-4-[[2-[2-[2-[[2-[2-[2-[[(4S)-4-carboxy-4-(17-carboxyheptadecanoylamino)butanoyl]amino]ethoxy]ethoxy]acetyl]amino]ethoxy … (peptide)
peptide: H[Aib]QGTFTSDLSKYLDARRARDFVQWLLSK([γGlu-γGlu-AEEA-AEEA-γGlu-C18 diacid])-NH2
modifications: N-terminus assumed
SMILES: CC(C)C[C@H](NC(=O)[C@H](Cc1ccc(O)cc1)NC(=O)[C@H](CCCCN)NC(=O)[C@H](CO)NC(=O)[C@H](CC(C)C)NC(=O)[C@H](CC(=O)O)NC(=O)[C@H](CO)NC(=O)[C@@H](NC(=O)[C@H](Cc1ccccc1)NC(=O)[C@@H](NC(=O)CNC(=O)[C@H](CCC(N)=O)NC(=O)C(C)(C)NC(=O)[C@@H](N)Cc1c[nH]cn1)[C@@H](C)O)[C@@H](C)O)C(=O)N[C@@H](CC(=O)O)C(=O)N[C@@H](C)C(=O)N[C@@H](CCCNC(=N)N)C(=O)N[C@@H](CCCNC(=N)N)C(=O)N[C@@H](C)C(=O)N[C@@H](CCCNC(=N)N)C(=O)N[C@@H](CC(=O)O)C(=O)N[C@@H](Cc1ccccc1)C(=O)N[C@H](C(=O)N[C@@H](CCC(N)=O)C(=O)N[C@@H](Cc1c[nH]c2ccccc12)C(=O)N[C@@H](CC(C)C)C(=O)N[C@@H](CC(C)C)C(=O)N[C@@H](CO)C(=O)N[C@@H](CCCCNC(=O)CC[C@H](NC(=O)CC[C@H](NC(=O)COCCOCCNC(=O)COCCOCCNC(=O)CC[C@H](NC(=O)CCCCCCCCCCCCCCCCC(=O)O)C(=O)O)C(=O)O)C(=O)O)C(N)=O)C(C)C
B4: N^ε29-[(4S)-4-carboxy-4-[[(4S)-4-carboxy-4-[[2-[2-[2-[[2-[2-[2-[[(4S)-4-carboxy-4-(17-carboxyheptadecanoylamino)butanoyl]amino]ethoxy]ethoxy]acetyl]amino]ethoxy … (peptide)
peptide: H[Aib]QGTFTSDLSKYLDARRARDFVQWLLNK([γGlu-γGlu-AEEA-AEEA-γGlu-C18 diacid])-NH2
modifications: N-terminus assumed
SMILES: CC(C)C[C@H](NC(=O)[C@H](Cc1ccc(O)cc1)NC(=O)[C@H](CCCCN)NC(=O)[C@H](CO)NC(=O)[C@H](CC(C)C)NC(=O)[C@H](CC(=O)O)NC(=O)[C@H](CO)NC(=O)[C@@H](NC(=O)[C@H](Cc1ccccc1)NC(=O)[C@@H](NC(=O)CNC(=O)[C@H](CCC(N)=O)NC(=O)C(C)(C)NC(=O)[C@@H](N)Cc1c[nH]cn1)[C@@H](C)O)[C@@H](C)O)C(=O)N[C@@H](CC(=O)O)C(=O)N[C@@H](C)C(=O)N[C@@H](CCCNC(=N)N)C(=O)N[C@@H](CCCNC(=N)N)C(=O)N[C@@H](C)C(=O)N[C@@H](CCCNC(=N)N)C(=O)N[C@@H](CC(=O)O)C(=O)N[C@@H](Cc1ccccc1)C(=O)N[C@H](C(=O)N[C@@H](CCC(N)=O)C(=O)N[C@@H](Cc1c[nH]c2ccccc12)C(=O)N[C@@H](CC(C)C)C(=O)N[C@@H](CC(C)C)C(=O)N[C@@H](CC(N)=O)C(=O)N[C@@H](CCCCNC(=O)CC[C@H](NC(=O)CC[C@H](NC(=O)COCCOCCNC(=O)COCCOCCNC(=O)CC[C@H](NC(=O)CCCCCCCCCCCCCCCCC(=O)O)C(=O)O)C(=O)O)C(=O)O)C(N)=O)C(C)C
B5: N^ε28-[(4S)-4-carboxy-4-[[(4S)-4-carboxy-4-[[(4S)-4-carboxy-4-(17-carboxyheptadecanoylamino)butanoyl]amino]butanoyl]amino]butanoyl]-[Aib2,Leu10,Arg12,Ala16,Arg2 … (peptide)
peptide: H[Aib]QGTFTSDLSRYLDARRARDFVQWLLK([γGlu-γGlu-γGlu-C18 diacid])T-NH2
modifications: N-terminus assumed
SMILES: CC(C)C[C@H](NC(=O)[C@H](Cc1ccc(O)cc1)NC(=O)[C@H](CCCNC(=N)N)NC(=O)[C@H](CO)NC(=O)[C@H](CC(C)C)NC(=O)[C@H](CC(=O)O)NC(=O)[C@H](CO)NC(=O)[C@@H](NC(=O)[C@H](Cc1ccccc1)NC(=O)[C@@H](NC(=O)CNC(=O)[C@H](CCC(N)=O)NC(=O)C(C)(C)NC(=O)[C@@H](N)Cc1c[nH]cn1)[C@@H](C)O)[C@@H](C)O)C(=O)N[C@@H](CC(=O)O)C(=O)N[C@@H](C)C(=O)N[C@@H](CCCNC(=N)N)C(=O)N[C@@H](CCCNC(=N)N)C(=O)N[C@@H](C)C(=O)N[C@@H](CCCNC(=N)N)C(=O)N[C@@H](CC(=O)O)C(=O)N[C@@H](Cc1ccccc1)C(=O)N[C@H](C(=O)N[C@@H](CCC(N)=O)C(=O)N[C@@H](Cc1c[nH]c2ccccc12)C(=O)N[C@@H](CC(C)C)C(=O)N[C@@H](CC(C)C)C(=O)N[C@@H](CCCCNC(=O)CC[C@H](NC(=O)CC[C@H](NC(=O)CC[C@H](NC(=O)CCCCCCCCCCCCCCCCC(=O)O)C(=O)O)C(=O)O)C(=O)O)C(=O)N[C@H](C(N)=O)[C@@H](C)O)C(C)C
B6: N^ε29-[(4S)-4-carboxy-4-[[2-[2-[2-[[2-[2-[2-[[(4S)-4-carboxy-4-[[(4S)-4-carboxy-4-(17-carboxyheptadecanoylamino)butanoyl]amino]butanoyl]amino]ethoxy]ethoxy]acet … (peptide)
peptide: H[Aib]QGTFTSDLSKYLESRRAREFVQWLLNK([γGlu-AEEA-AEEA-γGlu-γGlu-C18 diacid])-NH2
modifications: N-terminus assumed
SMILES: CC(C)C[C@H](NC(=O)[C@H](CC(C)C)NC(=O)[C@H](Cc1c[nH]c2ccccc12)NC(=O)[C@H](CCC(N)=O)NC(=O)[C@@H](NC(=O)[C@H](Cc1ccccc1)NC(=O)[C@H](CCC(=O)O)NC(=O)[C@H](CCCNC(=N)N)NC(=O)[C@H](C)NC(=O)[C@H](CCCNC(=N)N)NC(=O)[C@H](CCCNC(=N)N)NC(=O)[C@H](CO)NC(=O)[C@H](CCC(=O)O)NC(=O)[C@H](CC(C)C)NC(=O)[C@H](Cc1ccc(O)cc1)NC(=O)[C@H](CCCCN)NC(=O)[C@H](CO)NC(=O)[C@H](CC(C)C)NC(=O)[C@H](CC(=O)O)NC(=O)[C@H](CO)NC(=O)[C@@H](NC(=O)[C@H](Cc1ccccc1)NC(=O)[C@@H](NC(=O)CNC(=O)[C@H](CCC(N)=O)NC(=O)C(C)(C)NC(=O)[C@@H](N)Cc1c[nH]cn1)[C@@H](C)O)[C@@H](C)O)C(C)C)C(=O)N[C@@H](CC(N)=O)C(=O)N[C@@H](CCCCNC(=O)CC[C@H](NC(=O)COCCOCCNC(=O)COCCOCCNC(=O)CC[C@H](NC(=O)CC[C@H](NC(=O)CCCCCCCCCCCCCCCCC(=O)O)C(=O)O)C(=O)O)C(=O)O)C(N)=O

Numbered stars: 1 amine (or outer) side, 2 acyl side, 3 side chain; on linkers, the order of the positions; unused ones are H or OH. Square brackets hold non-standard residues; d marks the D form. Side chains are listed from the residue outwards. Ends that are not written are not given here. * marks the point of attachment. C18 diacid = O=C(O)CCCCCCCCCCCCCCCCC(=O)*; γGlu = O=C(O)[C@H](CCC(=O)[*:2])N[*:1]; AEEA = NCCOCCOCC(=O)O; Aib = CC(C)(N)C(=O)O

T2 sequence (P47871 26-477): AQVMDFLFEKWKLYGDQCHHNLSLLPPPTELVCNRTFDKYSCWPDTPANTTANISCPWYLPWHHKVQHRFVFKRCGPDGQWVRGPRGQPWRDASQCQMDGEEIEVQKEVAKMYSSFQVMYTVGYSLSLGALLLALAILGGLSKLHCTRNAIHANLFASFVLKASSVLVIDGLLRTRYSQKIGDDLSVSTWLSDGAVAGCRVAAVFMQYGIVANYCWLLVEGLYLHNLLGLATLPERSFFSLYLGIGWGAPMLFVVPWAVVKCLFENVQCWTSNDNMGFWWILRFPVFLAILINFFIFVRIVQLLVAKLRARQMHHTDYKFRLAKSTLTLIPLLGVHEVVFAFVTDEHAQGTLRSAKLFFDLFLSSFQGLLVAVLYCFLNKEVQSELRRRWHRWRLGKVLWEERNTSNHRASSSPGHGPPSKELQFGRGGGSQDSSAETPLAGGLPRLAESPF

One assay addresses T1, human GLP-1 receptor (human, UniProt P43220 24-463). The experiment in a line: cell-based or functional assay.
Regarding B1, the “EC50 GLP-1R, CRE luciferase reporter gene assay in BHK cells” value (shortened to “EC50 GLP-1R”) stood at 0.007 nM.

As to B2, the “EC50 GLP-1R” value is 0.0047 nM.

B3: the “EC50 GLP-1R” value worked out at 0.005 nM.

In the case of B4, the “EC50 GLP-1R” value turned out to be 0.006 nM.

For B5, the “EC50 GLP-1R” value amounted to 0.008 nM.

As to B6, the “EC50 GLP-1R” value was 0.0027 nM.

Another assay has as its target T2, human glucagon receptor (human, UniProt P47871 26-477). The experiment in a line: cell-based or functional assay.
Regarding B1, the “EC50 GlucR, CRE luciferase reporter gene assay in BHK cells” value (“EC50 GlucR” for short) turned out to be 0.068 nM.

Turning to B2, the “EC50 GlucR” value stood at 0.0399 nM.

As to B3, the “EC50 GlucR” value worked out at 0.047 nM.

Turning to B4, the “EC50 GlucR” value turned out to be 0.044 nM.

Turning to B5, the “EC50 GlucR” value came to 0.01 nM.

With B6, the “EC50 GlucR” value worked out at 0.24 nM.

A further assay concerns the target T1, human GLP-1 receptor. The experiment in a line: displacement of 125I-GLP-1(7-36)NH2, membranes with human GLP-1R, SPA. The protocol:
The receptor binding of each compound to the human GLP-1 receptor was measured in a displacement binding assay. […] Each derivative was added in a series of concentrations to isolated membranes containing the human GLP-1 receptor and displacement of the labelled ligand was monitored. The receptor binding was reported as the concentration at which half of the labelled ligand was displaced from the receptor, the IC₅₀ value.
On the technique in general: Loss of bound radioactivity is the signal in a displacement assay; it reports binding, not function.
B1 registered an IC50 of 0.2 nM.

Regarding B2, the half-inhibitory concentration (IC50) came to 0.9 nM.

The molecule B3 displayed an IC50 of 0.6 nM.

Take B4: the 50% inhibitory concentration (IC50) stood at 0.5 nM.

For B5, the half-inhibitory concentration (IC50) was determined as 0.2 nM.

B6: the IC50 turned out to be 0.3 nM.

In the next assay the target is T2, human glucagon receptor. Briefly: displacement of 125I-glucagon, membranes with human glucagon receptor, SPA. The method, then: The receptor binding of each compound to the human glucagon receptor was measured in a displacement binding assay. […] Each derivative was added in a series of concentrations to isolated membranes containing the human glucagon receptor and displacement of the labelled ligand is monitored. The receptor binding was reported as the concentration at which half of the labelled ligand is displaced from the receptor, the IC₅₀ value.
As to B1, the IC50 came to 9.5 nM.

With B2, the IC50 worked out at 8.5 nM.

As to B3, the concentration for half-maximal inhibition (IC50) came to 10.4 nM.

B4 had an IC50 of 17 nM.

In the case of B5, the IC50 was found to be 3.9 nM.

The molecule B6 registered an IC50 of 51 nM.

The IC50 is the concentration needed to halve the response being measured. High values mean lower potency, low ones higher potency.
